Laboratory results published in patent US20250206828A1, “ANTI-ADENOSINE RECEPTOR (A2aR) ANTIBODIES AND THE USE THEREOF” (Adept Therapeutics Inc., priority 2022, published 2025).
Substitutions are numbered along the chain they refer to. Names and notes keep the numbering of the source.

B1: Hu1B5-H1/Hu1B5-L4 (antibody, human IgG1, V domains shown)
VH: QVQLVQSGAEVKKPGASVKVSCKASGFTFTRFWMNWVRQAPGQGLEWMGRIDPYDSETQYNHKFWDRVTMTRDTSTSTVYMELSSLRSEDTAVYYCGRSLYGKGDYWGQGTTVTVSS
VL: DVVMTQSPLSLPVTPGEPASISCRSSQSIVHSNGNTYLEWYLQKPGQSPQLLIYKVSNRFSGVPDRFSGSGSGTDFTLKISRVEAEDVGVYYCFQGSHVPLTFGGGTKVEIK
notes: Human IgG1 FES (L234F, L235E, P331S) and human Ig kappa constant domains
B2: Hu1B5-H1/Hu1B5-L1 (antibody, human IgG1, V domains shown)
VH: B1 VH
VL: B1 VL with P15L, E17Q, Y41F, L42Q, K44R, Q50R, L51R
notes: as for B1
B3: Hu1B5-H2.1/Hu1B5-L5 (antibody, human IgG1, V domains shown)
VH: B1 VH with Q1E, A24T, M48I, R72V
VL: DIVMTQSPDSLAVSLGERATINCRSSQSIVHSNGNTYLEWYQQKPGQPPKLLIYKVSNRFSGVPDRFSGSGSGTDFTLTISSLQAEDVAVYYCFQGSHVPLTFGGGTKVEIK
notes: as for B1
B4: Hu1B5-H2/Hu1B5-L4 (antibody, human IgG1, V domains shown)
VH: B1 VH with Q1E, A24T, R72V
VL: B1 VL
notes: as for B1
B5: Hu1B5-H1/Hu1B5-L5 (antibody, human IgG1, V domains shown)
VH: B1 VH
VL: B3 VL
notes: as for B1
B6: Hu1B5-H4/Hu1B5-L5 (antibody, human IgG1, V domains shown)
VH: B1 VH with Q1E, A24T, M48I, V68A, M70L, R72V, T74K, T76S
VL: B3 VL
notes: as for B1
B7: Hu1B5-H4/Hu1B5-L4 (antibody, human IgG1, V domains shown)
VH: B1 VH with Q1E, A24T, M48I, V68A, M70L, R72V, T74K, T76S
VL: B1 VL
notes: as for B1
B8: Hu1B5-H5/Hu1B5-L4 (antibody, human IgG1, V domains shown)
VH: B1 VH with Q1E, A24T, M48I, N61A, V68A, M70L, R72V, T74K, T76S
VL: B1 VL
notes: as for B1
B9: Hu1B5-H2/Hu1B5-L5 (antibody, human IgG1, V domains shown)
VH: B1 VH with Q1E, A24T, R72V
VL: B3 VL
notes: as for B1
B10: Hu1B5-H3/Hu1B5-L5 (antibody, human IgG1, V domains shown)
VH: B1 VH with Q1E, A24T, M48I, V68A, M70L, R72V, T76S
VL: B3 VL
notes: as for B1
B11: Hu1B5-H2.1/Hu1B5-L4 (antibody, human IgG1, V domains shown)
VH: B1 VH with Q1E, A24T, M48I, R72V
VL: B1 VL
notes: as for B1
B12: Hu1B5-H3/Hu1B5-L4 (antibody, human IgG1, V domains shown)
VH: B1 VH with Q1E, A24T, M48I, V68A, M70L, R72V, T76S
VL: B1 VL
notes: as for B1
B13: Hu3F6-H4/Hu3F6-L6 (antibody, human IgG1, V domains shown)
VH: EVQLVQSGAEVKKPGASVKVSCKTSGFAFTSYWMNWVRQAPGQGLEWIGRIDPSDSEAHYHHKFWGRATLTVDKSSSTVYMELSSLRSEDTAVYYCLRSLYGKGDYWGHGTTVTVSS
VL: B1 VL with V2I, S7T, L9P, T14N, I29L, S32R, T74S, R82W, F94Y
notes: as for B1
B14: Hu3F6-H5/Hu3F6-L7 (antibody, human IgG1, V domains shown)
VH: B13 VH with H61A
VL: B1 VL with S7T, L9P, T14N, I29L, S32R, T74S, R82W, F94Y
notes: as for B1
B15: Hu3F6-H1/Hu3F6-L7 (antibody, human IgG1, V domains shown)
VH: B13 VH with E1Q, T24A, I48M, A68V, L70M, V72R, K74T, S76T
VL: B1 VL with S7T, L9P, T14N, I29L, S32R, T74S, R82W, F94Y
notes: as for B1
B16: Hu3F6-H1/Hu3F6-L5 (antibody, human IgG1, V domains shown)
VH: B13 VH with E1Q, T24A, I48M, A68V, L70M, V72R, K74T, S76T
VL: B1 VL with S7T, P12S, E17Q, I29L, S32R, F94Y
notes: as for B1
B17: Hu3F6-H2/Hu3F6-L7 (antibody, human IgG1, V domains shown)
VH: B13 VH with I48M, A68V, L70M, K74T, S76T
VL: B1 VL with S7T, L9P, T14N, I29L, S32R, T74S, R82W, F94Y
notes: as for B1
B18: Hu3F6-H4/Hu3F6-L3 (antibody, human IgG1, V domains shown)
VH: B13 VH
VL: B1 VL with P15L, E17Q, I29L, S32R, L42Q, K44R, Q50R, F94Y
notes: as for B1
B19: Hu3F6-H4/Hu3F6-L4 (antibody, human IgG1, V domains shown)
VH: B13 VH
VL: B1 VL with V2I, S7T, P12S, E17Q, I29L, S32R, F94Y
notes: as for B1
B20: Hu3F6-H4/Hu3F6-L5 (antibody, human IgG1, V domains shown)
VH: B13 VH
VL: B1 VL with S7T, P12S, E17Q, I29L, S32R, F94Y
notes: as for B1
B21: Hu3F6-H4/Hu3F6-L2 (antibody, human IgG1, V domains shown)
VH: B13 VH
VL: B1 VL with P15L, E17Q, I29L, S32R, L42Q, K44R, Q50R, L51R, F94Y
notes: as for B1
B22: Hu3F6-H6/Hu3F6-L8 (antibody, human IgG1, V domains shown)
VH: EVQLVQSGAEVKKPGESLRISCKASGFAFTSYWMNWVRQMPGKGLEWIGRIDPSDSEAHYHHKFWGHATLSVDKSSSTVYLQWSSLKASDTAMYYCLRSLYGKGDYWGHGTTVTVSS
VL: B1 VL with I29L, S32R, F94Y
notes: as for B1
B23: Hu3F6-H3/Hu3F6-L7 (antibody, human IgG1, V domains shown)
VH: B13 VH with K74T
VL: B1 VL with S7T, L9P, T14N, I29L, S32R, T74S, R82W, F94Y
notes: as for B1
B24: Hu3F6-H3/Hu3F6-L6 (antibody, human IgG1, V domains shown)
VH: B13 VH with K74T
VL: B1 VL with V2I, S7T, L9P, T14N, I29L, S32R, T74S, R82W, F94Y
notes: as for B1
B25: Hu3F6-H1/Hu3F6-L3 (antibody, human IgG1, V domains shown)
VH: B13 VH with E1Q, T24A, I48M, A68V, L70M, V72R, K74T, S76T
VL: B1 VL with P15L, E17Q, I29L, S32R, L42Q, K44R, Q50R, F94Y
notes: as for B1
B26: Hu3F6-H1/Hu3F6-L2 (antibody, human IgG1, V domains shown)
VH: B13 VH with E1Q, T24A, I48M, A68V, L70M, V72R, K74T, S76T
VL: B1 VL with P15L, E17Q, I29L, S32R, L42Q, K44R, Q50R, L51R, F94Y
notes: as for B1
B27: Hu3F6-H4/Hu3F6-L7 (antibody, human IgG1, V domains shown)
VH: B13 VH
VL: B1 VL with S7T, L9P, T14N, I29L, S32R, T74S, R82W, F94Y
notes: as for B1
B28: Hu3F6-H2/Hu3F6-L1 (antibody, human IgG1, V domains shown)
VH: B13 VH with I48M, A68V, L70M, K74T, S76T
VL: B1 VL with P15L, E17Q, I29L, S32R, Y41F, L42Q, K44R, Q50R, L51R, F94Y
notes: as for B1
B29: Hu3F6-H1/Hu3F6-L4 (antibody, human IgG1, V domains shown)
VH: B13 VH with E1Q, T24A, I48M, A68V, L70M, V72R, K74T, S76T
VL: B1 VL with V2I, S7T, P12S, E17Q, I29L, S32R, F94Y
notes: as for B1
B30: Hu3F6-H2/Hu3F6-L6 (antibody, human IgG1, V domains shown)
VH: B13 VH with I48M, A68V, L70M, K74T, S76T
VL: B1 VL with V2I, S7T, L9P, T14N, I29L, S32R, T74S, R82W, F94Y
notes: as for B1
B31: Hu3F6-H1/Hu3F6-L6 (antibody, human IgG1, V domains shown)
VH: B13 VH with E1Q, T24A, I48M, A68V, L70M, V72R, K74T, S76T
VL: B1 VL with V2I, S7T, L9P, T14N, I29L, S32R, T74S, R82W, F94Y
notes: as for B1
B32: Hu3F6-H5/Hu3F6-L6 (antibody, human IgG1, V domains shown)
VH: B13 VH with H61A
VL: B1 VL with V2I, S7T, L9P, T14N, I29L, S32R, T74S, R82W, F94Y
notes: as for B1
B33: Hu3F6-H1/Hu3F6-L1 (antibody, human IgG1, V domains shown)
VH: B13 VH with E1Q, T24A, I48M, A68V, L70M, V72R, K74T, S76T
VL: B1 VL with P15L, E17Q, I29L, S32R, Y41F, L42Q, K44R, Q50R, L51R, F94Y
notes: as for B1
B34: Hu3F6-H4/Hu3F6-L8 (antibody, human IgG1, V domains shown)
VH: B13 VH
VL: B1 VL with I29L, S32R, F94Y
notes: as for B1
B35: Hu3F6-H6/Hu3F6-L2 (antibody, human IgG1, V domains shown)
VH: B22 VH
VL: B1 VL with P15L, E17Q, I29L, S32R, L42Q, K44R, Q50R, L51R, F94Y
notes: as for B1
B36: Hu3F6-H6/Hu3F6-L7 (antibody, human IgG1, V domains shown)
VH: B22 VH
VL: B1 VL with S7T, L9P, T14N, I29L, S32R, T74S, R82W, F94Y
notes: as for B1
B37: Hu3F6-H6/Hu3F6-L3 (antibody, human IgG1, V domains shown)
VH: B22 VH
VL: B1 VL with P15L, E17Q, I29L, S32R, L42Q, K44R, Q50R, F94Y
notes: as for B1
B38: Hu3F6-H1/Hu3F6-L8 (antibody, human IgG1, V domains shown)
VH: B13 VH with E1Q, T24A, I48M, A68V, L70M, V72R, K74T, S76T
VL: B1 VL with I29L, S32R, F94Y
notes: as for B1
B39: Hu3F6-H6/Hu3F6-L1 (antibody, human IgG1, V domains shown)
VH: B22 VH
VL: B1 VL with P15L, E17Q, I29L, S32R, Y41F, L42Q, K44R, Q50R, L51R, F94Y
notes: as for B1
B40: Hu3F6-H6/Hu3F6-L5 (antibody, human IgG1, V domains shown)
VH: B22 VH
VL: B1 VL with S7T, P12S, E17Q, I29L, S32R, F94Y
notes: as for B1
B41: Hu3F6-H6/Hu3F6-L4 (antibody, human IgG1, V domains shown)
VH: B22 VH
VL: B1 VL with V2I, S7T, P12S, E17Q, I29L, S32R, F94Y
notes: as for B1
B42: Hu3F6-H6/Hu3F6-L6 (antibody, human IgG1, V domains shown)
VH: B22 VH
VL: B1 VL with V2I, S7T, L9P, T14N, I29L, S32R, T74S, R82W, F94Y
notes: as for B1

target: T1, human adenosine A2A receptor (A2aR) (human, UniProt P29274 1-412); assay: flow cytometry, HEK293-hA2aR cells, supernatant 1 ug/ml
T1 construct: Assays used HEK293 cells stably overexpressing human A2aR (BPS Bioscience 79381), human A2aR-expressing CHO cells, or endogenous A2aR on human PBMC; also called human A2aR; hA2aR
T1 sequence (P29274 whole entry): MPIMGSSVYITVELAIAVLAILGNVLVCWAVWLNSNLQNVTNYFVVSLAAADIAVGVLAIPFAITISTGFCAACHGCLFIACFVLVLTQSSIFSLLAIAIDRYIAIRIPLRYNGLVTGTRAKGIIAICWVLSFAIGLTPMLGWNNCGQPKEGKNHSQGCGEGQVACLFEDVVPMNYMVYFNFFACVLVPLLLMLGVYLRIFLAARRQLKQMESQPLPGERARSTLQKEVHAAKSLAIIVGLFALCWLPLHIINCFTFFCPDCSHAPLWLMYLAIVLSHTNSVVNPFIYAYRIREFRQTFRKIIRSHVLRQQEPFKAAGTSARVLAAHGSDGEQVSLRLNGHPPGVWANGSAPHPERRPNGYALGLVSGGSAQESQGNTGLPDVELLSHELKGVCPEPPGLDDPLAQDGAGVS

MFI [MFI]	Binder
1570	B1
34	B2
960	B3
1630	B4
481	B5
872	B6
1780	B7
1710	B8
728	B9
686	B10
1720	B11
1550	B12

target: T1, human adenosine A2A receptor (A2aR); assay: as above; remark: another data set of the same source

MFI [MFI]	Binder
1960	B13
1890	B14
290	B15
1500	B16
1180	B17
1960	B18
1450	B19
1990	B20
255	B21
2000	B22
1510	B23
1660	B24
1600	B25
14	B26
1880	B27
13	B28
1320	B29
1580	B30
313	B31
1840	B32
15	B33
1710	B34
17	B35
1170	B36
2090	B37
1420	B38
27	B39
1980	B40
2000	B41
979	B42
